Experiment: yeast display, Sf9 membrane polyspecificity reagent, FACS + sequencing; frameworks hold sequencing errors
Outline: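 Polyreactivity labels are assigned by the sorting gate from which each nanobody was recovered. The gates were low and high (top ~1%), set on anti-HA fluorescence for expression and streptavidin fluorescence for reagent binding. Before sorting, galactose-induced (36–48 hours) yeast display cells were stained for 1 hour at 4 °C with 10% biotinylated, detergent-solubilized Sf9 membrane reagent.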

| Sequence | polyreactivity (PSR sort gate) |
| --- | --- |
| QVQLVESGGGLVQAGGSLRLICAASGRTFYYYGMGWYRQAPGKERELVASITNGGNTNYADSVKGRFTISRDNAKNPVYLQKHSLYPEDTAVYYCAKDVPYWRPVVRYDYWGQGTQVTVSS | low polyreactivity |
| QVQLVESGGGLVQAGGSLRLICAASGRTLWWYAMGWYRQAPGKESELVAAIDYSDGNTYYADSVKGRFTISRDYAKNTVYLQMNSLKPEDTAVYFCAAEGYYNYGSYYWGQGTQVTVSS | high polyreactivity |
| QVQLVESGGGLVQAGGSLRLICAASGRTLYLYAMGWSRQAPGKEPELVAAIDWRGTSTYYADSVKGRFTISRDNAKNTVYLQMNSLKPEDTAFYYCNARFRSYLRWYQRDYWGQGTQVTVSS | low polyreactivity |
| QVQLVESGGGLVQAGGSLRLICAASGRTYHYYTLGWYRQSPGKERELVARISLGVGSTYYADSVKGRFTISRDNAKNTVDLQMYTLIPEDTAVYYCNAVWYKSFVKGVYGRVDWGQGTQVTVSS | low polyreactivity |
| QVQLVESGGGLVQAGGSLRLICAASGSIFPFYAMGWYRQEPGKERELVAAITYSGGRTYYADSVKGRFTISRDNAKNTVYLQMNSLKPEDTAVYYCAVVVIFVRYGYWGQGTQVTVSS | low polyreactivity |
| QVQLVESGGGLVQAGGSLRLICAASGSIFRLYAMGWYRPAPGKEREFVARIRWRGGSTNYADSVKGRFTISRDNAKNTVYLQMNCLKPVDTAVYYCAAKQGTVRAHTYVAWYDYWGQGTQVTVSS | high polyreactivity |
| QVQLVESGGGLVQAGGSLRLICAASGSIFRLYAMGWYRQAPGKERELVAAIRWSGGRTYYADSVKGRFTISRDNAKNTVYLQMNSLKPEDTAVYYCAADYYLPAYPPQTFGYWGQGTQVTVSS | high polyreactivity |
| QVQLVESGGGLVQAGGSLRLICAASGSIFRSYAMGWYRPAPGKERELVAAISSGGRTKYADSVKGRLTISRDNAKNTVYLQMNSLKPEDSAVYYCAARSVSATADFHYWGQGTQVTVSS | high polyreactivity |
| QVQLVESGGGLVQAGGSLRLICAASGSIFRYYTMGWYRQGPGKERELVARISSSGSTNYADSVKGRFTISRDNAKNTVYLQMNSLKPEDTEVYYCAARAFSWAGYYYWGQGTQVTLSS | low polyreactivity |
| QVQLVESGGGLVQAGGSLRLICAASGSIFSGYAMGWYRQAPGKERELVAAITTSGGSTYYADSVKGRFTISRENAKNTVYLPMNSLNPEDTSVYYCAAGWLYSRYARVYYWGQGTQVTLSS | high polyreactivity |
| QVQLVESGGGLVQAGGSLRLICAASGSIFTSNVMGWYRQSPGKERELVAAITITGTTNYADSVKGRFTISRDNAKYTVYLLMNSLKPEDTAVYDCAARHKQHNRYDYWGQGTQVTVSS | low polyreactivity |
| QVQLVESGGGLVQAGGSLRLICAASGSIFVGYAMGWYRQAPGKERELVAAISSNGGSTYYAYSVKGRFTISRDNAKNTVYLQMNSLKPEDTAVYYCAAGVRRVYASGHGAYGYWGQGTQVTVSS | low polyreactivity |
| QVQLVESGGGLVQAGGSLRLICAASGSIFVLNAMGWYRQAPGKERELVAAITSGGSTYYADSVKGRFTISRDNAKNTVYLQMISLKPEDTAVYYCNALDLSPSYKYDYWGQGTQVTVSS | low polyreactivity |
| QVQLVESGGGLVQAGGSLRLICAASGSIFWAYAMGWYRQAPGKERELVAAISSSGGRTYYADSVKGRFTISRDNAKNTVYFQMNSLNPEDTAVYYCAARSYSGYSPTFDYWGQGTQVTVSS | high polyreactivity |
| QVQLVESGGGLVQAGGSLRLICAASGSIFYVYAMGWYRQSPGKERELDAAINTSGGSTFYADSVKGRFTISRDNAKNTVYLQMNSLKPEDTAVYYCAAERYRYRSTDTMGYWGQGTQVTVSS | low polyreactivity |
| QVQLVESGGGLVQAGGSLRLICAASGSIITGYPMGWYRQAPGKERELVAGINSGTSTNFADSVKGRFTISRDNAKNTVFLQMNSMKPEDTAVYYCAKTAERRHYGVYRFDYWGQGTQVTVSS | low polyreactivity |
| QVQLVESGGGLVQAGGSLRLICAASGSILDGNTMGWYRQAPGKERELVAAITWDGTSTYFADSVKGRFTISRDNAKNTVYLQMNSLKPEDTAVYYCAATKGYSDPSTGYYAYIHYDYWGQGTQVTVSS | low polyreactivity |
| QVQLVESGGGLVQAGGSLRLICAASGSILSTYAMGWYREAPGKERELVADISGRVGSTYYADSVKGRFTISRDNAKNTDYLQMNSLKPEDTAVYYCAAALDYWPGYEYYYWGQGTQVTVSS | low polyreactivity |
| QVQLVESGGGLVQAGGSLRLICAASGSISYYNAMGRYRQAPGKERELVADITSGGGTYYADSVMGGFTISRDNAKNTVFLQMNSLKPEDTAVYYCAKDYGFTGYGYWGQGTQVTVSS | low polyreactivity |
| QVQLVESGGGLVQAGGSLRLICAASGSNFVGYAMGWYRQAPGKERELVAAISRTGASTYYADSVKGRFTISRDNAKNTVYLQMNSLKPEDTAVYYCAYYYSIYDYWGQGTQVTVSS | high polyreactivity |
| QVQLVESGGGLVQAGGSLRLICAASGSTFASYAMGWYRQAPGKERELVAAITRRGGSTYYADSVKGRFTISRDNAKNTVYLQMNSLKPEDTAVYYCAAKWTPATYKFDYWGQGTQVTVSS | high polyreactivity |
| QVQLVESGGGLVQAGGSLRLICAASGSTFELYAMGWYRQAPGKEREFVAAITYDSTYYADSVKGRFTISRDNAKNTVYLQMNSLKPEDTAVYYCAAAYWHYYYGWDMYYWGQGTQVTVSS | high polyreactivity |

| Sequence | polyreactivity (PSR sort gate) |
| --- | --- |
| QVQLVESGGGLVQAGGSLRLICAASGSTFEYSTMGWYRPAPGKERELVAAINSSGGRTYYADSVKGRFTISRDNAKNTVYLQMNSLKPEDTAVYYCNARWRSGPRAYDYWGQGTQVTLSS | high polyreactivity |
| QVQLVESGGGLVQAGGSLRLICAASGSTFFDYAMGGYRQAPGKEREFVADIYSNGGSTYYADSVKGRFTFSRDNAKNSVYLQMNSLKPEDTAGYYCAAVLRPRQGRRYDYWGQGTQVTVSS | low polyreactivity |
| QVQLVESGGGLVQAGGSLRLICAASGSTFFSYAMGWYRPAPGKERQLVAAITRSGGSTYYADSVKGRFTISRDNAKNTVFLQMNSLKPEDTAVYYCNADLGIGYDYWGQGTHVTVSS | high polyreactivity |
| QVQLVESGGGLVQAGGSLRLICAASGSTFGPNGMGWYRQAPGKERELVARIDRIGGGTYYADSVKGRFTISRDNAKNTVYLQMNSLKPEDTAVYYCAADGPSPFIQGYAKGDYWGQGTQVTVSS | low polyreactivity |
| QVQLVESGGGLVQAGGSLRLICAASGSTFGPYDMGWYRQAPGKERELVADITSGGSTYYADSVKGRFTISRDNAKNTVYLQMNSLKPEDTAVYYCAADRVWPYYQYDYWGQGTQVTVSS | low polyreactivity |
| QVQLVESGGGLVQAGGSLRLICAASGSTFGRNAMGWYRQAPGKERELVAAITASGGTTYYADSVKGRFTISRDNAKNTVYLQMNSLKPEDTAVYYFARAGHFSFKYDYWGQGTQVTVSS | low polyreactivity |
| QVQLVESGGGLVQAGGSLRLICAASGSTFGWYAMGWYRQAPGQERELVAAISWGGGSTYYADSVKGRFTISRDNAKNTVYLQMNSLKPEVTAVYYCAKVPLTYSRSGYEYDYWGQGTQVTVSS | low polyreactivity |
| QVQLVESGGGLVQAGGSLRLICAASGSTFHTYAMGWYRQAPGKERELVATITWDGGRTYYADSVKGRFTISRDNAKNTVYLQMNSLKPEDPAVYYCAADYWSIEMDYWGQGTQVTVSS | low polyreactivity |
| QVQLVESGGGLVQAGGSLRLICAASGSTFKRYAMGWYRQAPGKERELVAAISLSSGSTYYADSVKGRFTISRDNAKNTVYLQMNSLKPEDTAVYYCNAAKTYPDVYEYDYWGQGTQVTVSS | high polyreactivity |
| QVQLVESGGGLVQAGGSLRLICAASGSTFKYNAMGWYRQAPGKERELVAAISSGGSTNYADSVKGRFTISRDNAKNTVYLQMHSLKPEDTAVYYCNAAYNYVTPWYFYWGQGTQVTVSS | high polyreactivity |
| QVQLVESGGGLVQAGGSLRLICAASGSTFQDNAMGWYRQAPGKERELVASISSVDSTNYADSVKGRFTISRDNAQNTVYLQMNSLKPEDTAVYYCNAAHPYRRVGSFTYKYDYWGQGTQVTVSS | low polyreactivity |
| QVQLVESGGGLVQAGGSLRLICAASGSTFRHYAMGWYRQAPGKERELVAAIRRSGGTTYYADSVKGRFTISRDNAKNTVYLHMNSLKPEDTAVYYCAARLTVRKLVRFDYWGQGTQVTVSS | low polyreactivity |
| QVQLVESGGGLVQAGGSLRLICAASGSTFSAYVMGWYRQAPGKERKLVAAITRSGVSTYYADSVKGRFTISRDNAKNTVYLQMNSLKPEDTAVYYCARRAKGAYWNEYNYWGQGTQVTVSS | high polyreactivity |
| QVQLVESGGGLVQAGGSLRLICAASGSTFTRYAMGWYRQAPGKERELVAAINSSGGRTYYADSVKGRFTISRDNAKNTVYLQMNSLKPEDTAVYYFAATRGRYREDEDYWGQGTQVTVSS | high polyreactivity |
| QVQLVESGGGLVQAGGSLRLICAASGSTFTRYAMGWYRQAPRKERELVAAISRGGSTNYADSVKGRFTISRDNAKNTVYLQMNSLKPEDTAVYYCAAARYRYYLGFGYDYWGQGTQVTVSS | high polyreactivity |
| QVQLVESGGGLVQAGGSLRLICAASGSTFYSNAMGWYRQAPGKERELVAAINYSGGGTYYADSVKGRFTISRDNAKNTVYLQMNSLKPEDTAVYYCAADGSYVHWEYGYWGQGTQVTVSS | low polyreactivity |
| QVQLVESGGGLVQAGGSLRLICAASGSTFYSYAMGWYRQAPGKERELVAVISWSGGSTYYADSVKGRFTISRDNAKNTVYLQMNSLKPEDTAVYYCAAESYYSDDWYYAYYYWGQGTQVTVSS | high polyreactivity |
| QVQLVESGGGLVQAGGSLRLICAASGSTIGGYVMGWYRQAPGKERELVAAISRSGASTYYADSVKGRFTISRDNAKNTVYLQMNSLKQEDTAVYYCAAYQARGMDYWGQGTQVTVSS | high polyreactivity |
| QVQLVESGGGLVQAGGSLRLICAASGSTIGSYVMGWYRTAPGKERELVAAITSGARTNYADSVKGRFTISRDNAKNTVYLQMNSLKPEDTAVYYCAKYYRPAYVYRIAGYYWGQGTQVTVSS | high polyreactivity |
| QVQLVESGGGLVQAGGSLRLICAASGSTILVYAMGCYRQAPWKEMELVAAITQIDGSTYYADSVKGRFTISRDNAKNTVYLQMNSLKPEDTAVFYCAARFFWTYEYDYWGQATQVTVSS | low polyreactivity |
| QVQLVESGGGLVQAGGSLRLICAASGSTLDKYAMGWDRPAPGKERELVAAISSSGGSTYYADSVKGRFTISRDNAKNTVYLQMNSLKPEDTAVYYCAARFFRGRYLDDYWGQGTQVTVSS | high polyreactivity |

From the nanobody polyreactivity screen of Harvey et al. (2022)
